Laboratory results published in US20190328837A1 (Stanford University, published 2019).
Numbering of substitutions follows the chain as printed. Names and notes keep the numbering of the source. Each block holds one binder with its values, some of them ahead of it.

Tests used:
wild-type CNTFR-HIS [1] = target: T1, wild-type CNTFR-HIS (human, UniProt P26992 23-342); assay: flow cytometry, yeast-displayed CLCF1 construct, soluble CNTFR-HIS titrated, apparent Kd from a four-parameter fit
T1 construct: also called wtCNTFR-HIS; HIS tagged CNTFR; not shown: HIS tag
T1 sequence: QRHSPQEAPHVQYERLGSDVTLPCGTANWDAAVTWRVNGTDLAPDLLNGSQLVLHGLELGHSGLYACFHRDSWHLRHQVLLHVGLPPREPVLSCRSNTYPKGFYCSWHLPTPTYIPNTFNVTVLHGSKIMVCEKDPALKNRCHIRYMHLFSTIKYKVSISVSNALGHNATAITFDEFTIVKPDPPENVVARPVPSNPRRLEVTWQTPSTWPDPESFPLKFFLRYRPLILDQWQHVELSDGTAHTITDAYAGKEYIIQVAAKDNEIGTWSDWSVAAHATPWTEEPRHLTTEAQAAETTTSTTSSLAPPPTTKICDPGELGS
Method: (§1) Using equilibrium binding conditions and screened by flow cytometric sorting (FACS), high throughput screening of the CLCF1 library using wtCNTFR-HIS was performed to enrich variants showing increased CLCF1 binding. Expression signal was used to normalize CNTFR binding to distinguish high expressers from high affinity binders. Screening stringency was increased throughout sorting by decreasing the concentration of wtCNTFR-HIS incubated with the library. […] Thus a variant containing the three mutations (named FRR-CLCF1) was chosen for further characterization (FIG. 7).
(§2) Yeast displaying CLCF1 constructs were incubated with varying concentrations of CNTFR for 12 h at room temperature to reach equilibrium binding. This was followed by washing with BPBS and resuspension in PBSA with 1:500 ratio of chicken anti-c-Myc (Invitrogen) for 30 min at 4 C. Yeast were then washed and pelleted, and secondary labeling was performed on ice for 30 min using PBSA with 1:100 dilution of goat anti-chicken PE (Santa Cruz) and mouse anti-HIS Hilyte Fluor 488 (Anaspec). Then samples were washed and analyzed by flow cytometry using Accuri (BD Biosciences). Samples were analyzed on BD Bioscience software, and data were analyzed using FlowJo software. Kd values were determined by fitting to a four-parameter sigmoidal curve. Error bars represent the standard deviation of triplicate experiments.

wild-type CNTFR-HIS [2] = target: T1, wild-type CNTFR-HIS; assay: flow cytometry, yeast-displayed CLCF1 construct, soluble CNTFR-HIS titrated, anti-HIS Hilyte Fluor 488 detection
Method: as §1, §2

wild-type CNTFR-HIS [3] = target: T1, wild-type CNTFR-HIS; assay: yeast surface display, equilibrium titration with CNTFR-HIS, flow cytometry (apparent Kd)
Method: as §1, §2

wild-type CNTFR-Fc [4] = target: T2, wild-type CNTFR-Fc (human, UniProt P26992 23-342); assay: cell-free ELISA, HIS-tagged soluble CLCF1 titrated against 2 nM CNTFR-Fc, anti-HIS capture, HRP anti-mouse detection
T2 construct: also called wtCNTFR-Fc; not shown: Fc domain; captured with anti-mouse Fc antibody
T2 sequence: T1 sequence
Method: (§3) 96-well plates were coated with 10 μg/mL of anti-HIS antibody overnight and blocked with 5% milk for 1 h. The plates were then washed twice with BPBS. Different concentrations of soluble constructs of HIS-tagged CLCF1 variants were incubated with 2 nM CNTFR-Fc in BPBS for 12 h at room temperature. The mixture was then added to 96-well plates coated with anti-HIS antibody for 1 h followed by washing with BPBS twice. Subsequently, the wells were incubated with 1:1000 diluted HRP conjugated anti-mouse antibody for 1 h at room temperature then washed four times with PBS. 1-Step Ultra TMB ELISA (Thermo Fisher Scientific) was used for the readout detected using a plate reader (Tecan).

wild-type CNTFR-Fc [5] = target: T2, wild-type CNTFR-Fc; assay: sandwich ELISA, soluble CLCF1 titrated against 2 nM CNTFR-Fc, anti-mouse-Fc capture, anti-CLCF1 detection
Method: (§4) The CLCF1 variants isolated from screening were cloned into the pET28b bacterial expression plasmid and expressed and purified. […] A sandwich ELISA was performed using an anti-mouse Fc antibody as a capturing agent for wtCNTFR-Fc, followed by an anti-CLCF1 antibody as a detection agent for the bound complex. […] ELISA was also used to measure binding interactions with the gp130 and LIFR beta receptors.
(§5) To measure the solution-phase binding interaction between the CLCF1 constructs and CNTFR, different concentrations of soluble, recombinant CLCF1 variants and wtCLCF1 were incubated with 2 nM CNTFR-Fc in BPBS for 12 h at room temperature. The mixture was then added to 96-well plates coated with anti-mouse-Fc antibody for 1 h followed by washing with BPBS twice. Subsequently, the wells were incubated with 1:1000 diluted anti-CLCF1 rabbit antibody for 2 h at room temperature then washed four times with BPBS. The wells were incubated with a 1:1000 diluted HRP conjugated anti-rabbit antibody for 2 h at room temperature, and washed four times with BPBS. 1-Step Ultra TMB ELISA was used for the readout, which was measured using a plate reader (Tecan).

wild-type CNTFR-Fc [6] = target: T2, wild-type CNTFR-Fc; assay: cell-free ELISA, HIS-tagged soluble CLCF1 titrated against 2 nM CNTFR-Fc
Method: as §3

wild-type CNTFR-HIS [7] = target: T1, wild-type CNTFR-HIS; assay: flow cytometry, yeast-displayed CLCF1 construct, soluble CNTFR titrated, apparent Kd
wild-type CNTFR-HIS [8] = target: T1, wild-type CNTFR-HIS; assay: flow cytometry, yeast-displayed CLCF1 construct, soluble CNTFR titrated
wild-type CNTFR-Fc [9] = target: T2, wild-type CNTFR-Fc; assay: sandwich ELISA, soluble CLCF1 titrated against 2 nM CNTFR-Fc, apparent Kd
Method: as §4, §5

wild-type CNTFR-Fc [10] = target: T2, wild-type CNTFR-Fc; assay: cell-free ELISA: HIS-tagged CLCF1 constructs with 2 nM CNTFR-Fc, captured by anti-HIS, detected by anti-mouse HRP; FRR-CLCF1 plus Y22C
Method: as §3

wild-type CNTFR-Fc [11] = target: T2, wild-type CNTFR-Fc; assay: cell-free ELISA: HIS-tagged CLCF1 constructs with 2 nM CNTFR-Fc, captured by anti-HIS, detected by anti-mouse HRP; FRR-CLCF1 plus K180R
Text: (§6) This was subsequently confirmed using a cell-free ELISA method. […] Unexpectedly, Y22C, W169L, and K180R decreased binding for gp130 with the combined mutations leading to the lowest binding while the mutations led to increased LIFR binding through increased CNTFR binding (FIG. 18). Because reduced binding interaction with beta receptors is desirable for antagonizing activation of CNTFR-CLCF1 mediated pathways, the clone with all six mutations, which was named sfCLCF1 (shuffled CLCF1) was selected for further studies.
as §3

wild-type CNTFR-Fc [12] = target: T2, wild-type CNTFR-Fc; assay: cell-free ELISA: HIS-tagged CLCF1 constructs with 2 nM CNTFR-Fc, captured by anti-HIS, detected by anti-mouse HRP; FRR-CLCF1 plus W169L
Method: as §3

wild-type CNTFR-Fc [13] = target: T2, wild-type CNTFR-Fc; assay: assay not given; the FRR-CLCF1 and sfCLCF1 values in it equal those of FIG. 17 B (cell-free ELISA with 2 nM CNTFR-Fc)
wild-type CNTFR-Fc [14] = target: T2, wild-type CNTFR-Fc; assay: cell-free ELISA: HIS-tagged CLCF1 constructs with 2 nM CNTFR-Fc, captured by anti-HIS, detected by anti-mouse HRP; all six mutations combined (sfCLCF1)
Text: as §6, §3

Kd (wild-type CNTFR-HIS [3]): 4.2 nM
B2: yeast-displayed CLCF1 variant H148R (ligand)
chain: LNRTGDPGPGPSIQKTYDLTRYLEHQLRSLAGTYLNYLGPPFNEPDFNPPRLGAETLPRATVDLEVWRSLNDKLRLTQNYEAYSHLLCYLRGLNRRAATAELRRSLAHFCTSLQGLLGSIAGVMAALGYPLPQPLPGTEPTWTPGPARSDFLQKMDDFWLLKELQTWLWRSAKDFNRLKKKMQPPAAAVTLHLGAHGF

Kd (wild-type CNTFR-HIS [3]): 3.1 nM
B4: yeast-displayed CLCF1 variant L86F (ligand)
chain: B2 chain with L86F, R148H

Kd (wild-type CNTFR-HIS [7]): 0.06 nM
EC50 (read off the curve) (wild-type CNTFR-HIS [8]): ~0.1 nM
B6: yeast-displayed CLCF1 variant with Y22C, L86F, Q96R, H148R, W169L, K180R (ligand, not shown: large carriers; small tags and cut ends)
chain: B2 chain with Y22C, L86F, W169L, K180R
notes: also called the resulting variant (five consensus mutations combined with Y22C)

Kd (wild-type CNTFR-HIS [3]): 7.9 nM
EC50 (read off the curve) (wild-type CNTFR-HIS [2]): ~6 nM
B7: yeast-displayed CLCF1 variant Q96R (ligand, not shown: large carriers; small tags and cut ends)
chain: B2 chain with R148H

Kd (wild-type CNTFR-HIS [7]): 0.18 nM
B9: v5 (ligand)
CLCF1 variant displayed on yeast as Aga2p fusion with c-myc tag: B2 chain with Y22C, L86F

Kd (wild-type CNTFR-HIS [7]): 0.83 nM
EC50 (read off the curve) (wild-type CNTFR-HIS [8]): ~1 nM
EC50 (read off the curve) (wild-type CNTFR-HIS [2]): ~1 nM
B10: yeast-displayed FRR-CLCF1 (L86F, Q96R, H148R) (ligand, not shown: large carriers; small tags and cut ends)
chain: B2 chain with L86F
notes: also called the variant with all three mutations

Kd (wild-type CNTFR-HIS [7]): 0.08 nM
EC50 (read off the curve) (wild-type CNTFR-HIS [8]): ~0.4 nM
B13: v4 (ligand)
CLCF1 variant displayed on yeast as Aga2p fusion with c-myc tag: B2 chain with L86F, W169L, K180R
notes: The five consensus mutations without Y22C

More lines, now with the values behind:

B1: v2 (ligand)
CLCF1 variant displayed on yeast as Aga2p fusion with c-myc tag: B2 chain with L86F, R148H
Kd (wild-type CNTFR-HIS [1]): 3.1 nM
EC50 (read off the curve) (wild-type CNTFR-HIS [2]): ~4 nM

B3: recombinant soluble wild-type human CLCF1 (ligand)
chain: B2 chain with R96Q, R148H
notes: Expressed in E. coli from pET28b and purified from inclusion bodies by RP-HPLC; also called wtCLCF1; wild-type CLCF1
EC50 (read off the curve) (wild-type CNTFR-Fc [4]): ~80 nM
EC50 (read off the curve) (wild-type CNTFR-Fc [5]): ~80 nM

B5: v4 (ligand)
soluble CLCF1 variant: B2 chain with L86F, W169L, K180R
notes: the text prints no Kd for it
EC50 (read off the curve) (wild-type CNTFR-Fc [4]): ~0.2 nM
Kd (wild-type CNTFR-Fc [6]): 0.2 nM

B8: v2 (ligand)
CLCF1 variant displayed on yeast as Aga2p fusion with c-myc tag: B2 chain with L86F, W169L
Kd (wild-type CNTFR-HIS [7]): 0.22 nM

B11: v1 (ligand)
soluble CLCF1 variant: B2 chain with R148H
Kd (wild-type CNTFR-Fc [9]): 6.6 nM
EC50 (read off the curve) (wild-type CNTFR-Fc [5]): ~6 nM

B12: recombinant soluble FRR-CLCF1 with Y22C (ligand)
chain: B2 chain with Y22C, L86F
notes: HIS-tagged in the cell-free assay
Kd (wild-type CNTFR-Fc [10]): 0.464 nM

B14: v3 (ligand)
soluble CLCF1 variant: B2 chain
Kd (wild-type CNTFR-Fc [9]): 2.5 nM
EC50 (read off the curve) (wild-type CNTFR-Fc [5]): ~2 nM

B15: v2 (ligand)
soluble CLCF1 variant: B2 chain with L86F, R148H
Kd (wild-type CNTFR-Fc [9]): 2.3 nM
EC50 (read off the curve) (wild-type CNTFR-Fc [5]): ~2 nM

B16: recombinant soluble FRR-CLCF1 with K180R (ligand)
chain: B2 chain with L86F, K180R
notes: Read as FRR-CLCF1 plus K180R; HIS-tagged in the cell-free assay
Kd (wild-type CNTFR-Fc [11]): 0.559 nM

B17: recombinant soluble FRR-CLCF1 with W169L (ligand)
chain: B2 chain with L86F, W169L
notes: Read as FRR-CLCF1 plus W169L; HIS-tagged in the cell-free assay
Kd (wild-type CNTFR-Fc [12]): 0.64 nM

B18: v3 (ligand)
CLCF1 variant displayed on yeast as Aga2p fusion with c-myc tag: B2 chain
Kd (wild-type CNTFR-HIS [1]): 4.2 nM
EC50 (read off the curve) (wild-type CNTFR-HIS [2]): ~3 nM

B19: FRRAA-CLCF1 (ligand)
chain: B2 chain with L86F, F151A, K154A
notes: It is read as FRR-CLCF1 plus the LIFR-reducing alanine substitutions F151A and K154A
Kd (wild-type CNTFR-Fc [13]): 0.93 nM

B20: v3 (ligand)
CLCF1 variant displayed on yeast as Aga2p fusion with c-myc tag: B2 chain with L86F, K180R
Kd (wild-type CNTFR-HIS [7]): 0.28 nM

B21: recombinant soluble sfCLCF1 (shuffled CLCF1; Y22C, L86F, Q96R, H148R, W169L, K180R) (ligand)
chain: B2 chain with Y22C, L86F, W169L, K180R
notes: HIS-tagged in the cell-free assay; also called the clone with all 6 mutations; a variant with all of the mutations combined
EC50 (read off the curve) (wild-type CNTFR-Fc [4]): ~0.2 nM
Kd (wild-type CNTFR-Fc [14]): 0.115 nM

B22: enCLCF1 (engineered CLCF1; Y22C, L86F, Q96R, H148R, F151A, K154A, W169L, K180R) (ligand)
chain: B2 chain with Y22C, L86F, F151A, K154A, W169L, K180R
notes: That change is not in the list of mutations; also called sfAA-CLCF1
Kd (wild-type CNTFR-Fc [13]): 0.12 nM
